Patent publication US20030143712A1 (J DAVID GLADSTONE INSTITUTES, published 2003)

What was measured:
endogenous HDAC1 = endogenous HDAC1 (UniProt Q13547 1-482); assay: GST pull-down from SupT1 cell extracts, western blot
Protocol: (§1) After incubation for 3 hours at 4° C. with rocking, reactions were washed three times in IPLS, three times in the same buffer but at 1 M NaCl, and two times in HD buffer (Fischle et al., supra). Pulldown reactions were split, and either processed for histone deacetylase activity assays or for western blotting. For pulldown reactions with ³⁵S-labeled proteins, cDNAs were transcribed and translated with the TNT reticulocyte system (Promega). The labeling reaction (5 μl) was incubated with GST fusion proteins in a total volume of 200 μl of GST buffer (20 mM Tris-HCl, pH 8.0, 150 mM KCl, 5 mM DTT, 2 mM EDTA, 10% glycerol, 0.5% non fat dry milk, 0.1% NP-40) for 1 h at 4° C. with rocking. Reactions were washed five times in the same buffer, and bound proteins were resolved on denaturing SDS-PAGE gels for analysis by autoradiography.
(§2) After extensive washing, the bound material was tested for HDAC activity.

endogenous HDAC2 = endogenous HDAC2 (UniProt Q92769 1-488); assay: as above
Protocol: as §1, §2

endogenous HDAC3, O15379 = target: T1, endogenous HDAC3, O15379
T1 chain: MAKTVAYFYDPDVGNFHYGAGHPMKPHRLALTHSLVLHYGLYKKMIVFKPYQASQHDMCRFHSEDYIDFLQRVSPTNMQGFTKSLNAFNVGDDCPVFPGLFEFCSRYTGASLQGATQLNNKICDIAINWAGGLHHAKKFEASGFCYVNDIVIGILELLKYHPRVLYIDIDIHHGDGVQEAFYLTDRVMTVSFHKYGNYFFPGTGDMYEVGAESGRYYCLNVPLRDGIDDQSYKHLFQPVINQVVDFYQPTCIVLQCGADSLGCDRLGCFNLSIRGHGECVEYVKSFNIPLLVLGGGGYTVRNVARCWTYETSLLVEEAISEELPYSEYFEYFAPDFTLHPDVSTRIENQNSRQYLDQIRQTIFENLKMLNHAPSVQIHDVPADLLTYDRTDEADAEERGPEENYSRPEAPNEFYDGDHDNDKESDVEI

Sequence of endogenous HDAC2 (Q92769 whole entry): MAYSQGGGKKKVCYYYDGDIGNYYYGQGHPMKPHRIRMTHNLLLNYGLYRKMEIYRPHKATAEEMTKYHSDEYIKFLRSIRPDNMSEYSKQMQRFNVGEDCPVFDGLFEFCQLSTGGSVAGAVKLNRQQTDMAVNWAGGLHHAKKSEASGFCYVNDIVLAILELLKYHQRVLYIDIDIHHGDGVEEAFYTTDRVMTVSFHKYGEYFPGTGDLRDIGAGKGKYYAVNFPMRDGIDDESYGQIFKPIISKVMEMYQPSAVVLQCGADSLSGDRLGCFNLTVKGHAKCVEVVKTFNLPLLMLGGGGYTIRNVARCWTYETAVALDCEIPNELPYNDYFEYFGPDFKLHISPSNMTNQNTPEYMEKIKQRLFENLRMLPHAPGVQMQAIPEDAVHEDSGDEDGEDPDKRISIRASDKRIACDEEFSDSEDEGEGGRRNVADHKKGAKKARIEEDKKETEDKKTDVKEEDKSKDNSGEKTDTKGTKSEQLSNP
Sequence of endogenous HDAC1 (Q13547 whole entry): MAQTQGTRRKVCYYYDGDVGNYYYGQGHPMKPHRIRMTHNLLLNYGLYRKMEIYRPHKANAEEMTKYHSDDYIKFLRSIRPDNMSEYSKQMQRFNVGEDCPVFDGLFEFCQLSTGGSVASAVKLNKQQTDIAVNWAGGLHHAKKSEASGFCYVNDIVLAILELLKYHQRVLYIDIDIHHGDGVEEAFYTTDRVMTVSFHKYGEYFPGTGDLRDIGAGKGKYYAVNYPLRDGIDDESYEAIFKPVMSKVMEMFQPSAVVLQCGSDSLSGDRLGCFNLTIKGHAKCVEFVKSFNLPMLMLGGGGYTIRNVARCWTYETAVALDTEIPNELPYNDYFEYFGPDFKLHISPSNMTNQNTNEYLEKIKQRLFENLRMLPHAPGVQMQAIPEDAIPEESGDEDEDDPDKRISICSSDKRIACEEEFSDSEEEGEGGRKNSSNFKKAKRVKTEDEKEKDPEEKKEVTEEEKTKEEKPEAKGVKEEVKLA

B1: GST-HDAC7(aa 438-912) (enzyme)
chain: QGGHRPLSRAQSSPAAPASLSAPEPASQARVLSSSETPARTLPFTTGLIYDSVMLKHQCSCGDNSRHPEHAGRIQSIWSRLQERGLRSQCECLRGRKASLEELQSVHSERHVLLYGTNPLSRLKLDNGKLAGLLAQRMFVMLPCGGVGVDTDTIWNELHSSNAARWAAGSVTDLAFKVASRELKNGFAVVRPPGHHADHSTAMGFCFFNSVAIACRQLQQQSKASKILIVDWDVHHGNGTQQTFYQDPSVLYISLHRHDDGNFFPGSGAVDEVGAGSGEGFNVNVAWAGGLDPPMGDPEYLAAFRIVVMPIAREFSPDLVLVSAGFDAAEGHPAPLGGYHVSAKCFGYMTQQLMNLAGGAVVLALEGGHDLTAICDASEACVAALLGNRVDPLSEEGWKQKPNLNAIRSLEAVIRVHSKYWGCMQRLASCPDSWVPRVPGADKEEVEAVTALASLSVGILAEDRPSEQLVEEEEP
notes: also called active GST-HDAC7; not shown: glutathione-S-transferase (GST) of the pGEX4T1 vector (Pharmacia), N-terminal fusion partner
With B1 the binding result (endogenous HDAC1) was “no binding”, the binding result (endogenous HDAC2) was “no binding” and the HDAC activity associated with the GST pull-down from GST-HDAC4 depleted lysate against GST depleted lysate (fold reduction) (endogenous HDAC3, O15379) was 3.
